Results taken from patent US20190359693A1.

What was measured:
[1] = target: HA of H3N2 A/Brisbane/10/2007 (influenza A virus); assay: BLI steady state
[2] = target: HA of H7N3 A/NIBRG/60 (A/mallard/NL/12/00) (influenza A virus); assay: BLI steady state
[3] = target: HA of H1N1 A/Brisbane/59/07 (influenza A virus); assay: cell-based or functional assay
[4] = target: HA of H5N1 A/Vietnam/1194/04 (influenza A virus); assay: cell-based or functional assay
[5] = target: HA of B/Brisbane/60/2008 (Victoria) (influenza B virus); assay: cell-based or functional assay
[6] = target: HA of H1N1 A/New Caledonia/20/1999 (influenza A virus); assay: cell-based or functional assay
[7] = target: HA of H3N2 A/Brisbane/10/2007 (influenza A virus); assay: cell-based or functional assay
[8] = target: HA of B/Florida/04/2006 (Yamagata) (influenza B virus); assay: cell-based or functional assay
[9] = target: HA of H7N3 A/NIBRG/60 (A/mallard/NL/12/00) (influenza A virus); assay: cell-based or functional assay
[10] = target: hemagglutinin (HA) of influenza virus H3N2 A/HK/1/68-MA (influenza A virus); assay: cell-based or functional assay
[11] = target: hemagglutinin (HA) of influenza virus B/Malaysia/2506/04 (Victoria) (influenza B virus); assay: cell-based or functional assay
[12] = target: hemagglutinin (HA) of influenza virus H11N9 A/Northern Pintail/MPC2085/07 (influenza A virus); assay: cell-based or functional assay
[13] = target: hemagglutinin (HA) of influenza virus H5N1 A/Vietnam/1194/04 (influenza A virus); assay: cell-based or functional assay
[14] = target: hemagglutinin (HA) of influenza virus H3N2 A/Perth/16/09 (influenza A virus); assay: cell-based or functional assay
[15] = target: hemagglutinin (HA) of influenza virus H6N1 A/Eurasian Wigeon/MPG1884/09 (influenza A virus); assay: cell-based or functional assay
[16] = target: hemagglutinin (HA) of influenza virus H7N3 A/NIBRG/60 (A/mallard/Netherlands/12/00) (influenza A virus); assay: cell-based or functional assay
[17] = target: hemagglutinin (HA) of influenza virus H3N2 A/Aichi/2/68 (influenza A virus) (UniProt P03437); assay: cell-based or functional assay
[18] = target: hemagglutinin (HA) of influenza virus H4 A/WF/HK/MPA892/06 (influenza A virus); assay: cell-based or functional assay
[19] = target: hemagglutinin (HA) of influenza virus H1N1 A/Brisbane/59/07 (influenza A virus); assay: cell-based or functional assay
[20] = target: hemagglutinin (HA) of influenza virus B/Florida/04/06 (Yamagata) (influenza B virus); assay: cell-based or functional assay
[21] = target: hemagglutinin (HA) of influenza virus H3N2 A/Johannesburg/33/94 (influenza A virus); assay: cell-based or functional assay
[22] = target: hemagglutinin (HA) of influenza virus H3N2 A/Wisconsin/67/05 (influenza A virus); assay: cell-based or functional assay
[23] = target: hemagglutinin (HA) of influenza virus H1N1 A/WSN/33 (influenza A virus) (UniProt P03454); assay: cell-based or functional assay
[24] = target: hemagglutinin (HA) of influenza virus H1N1 A/California/07/09 (influenza A virus); assay: cell-based or functional assay
[25] = target: hemagglutinin (HA) of influenza virus H3N2 A/Panama/2007/99 (influenza A virus); assay: cell-based or functional assay
[26] = target: hemagglutinin (HA) of influenza virus H7N7 A/PR8 H7N7-NY (influenza A virus); assay: cell-based or functional assay
[27] = target: hemagglutinin (HA) of influenza virus H8N4 A/Eurasian Wigeon/MPH571/08 (influenza A virus); assay: cell-based or functional assay
[28] = target: hemagglutinin (HA) of influenza virus H10N7 A/Chick/Germany/N/49 (influenza A virus); assay: cell-based or functional assay
[29] = target: hemagglutinin (HA) of influenza virus H3N2 A/Hiroshima/52/05 (influenza A virus); assay: cell-based or functional assay
[30] = target: hemagglutinin (HA) of influenza virus B/Lee/40 (Old) (influenza B virus) (UniProt P03460); assay: cell-based or functional assay
[31] = target: hemagglutinin (HA) of influenza virus H3N2 A/Fukui/45/04 (influenza A virus); assay: cell-based or functional assay
[32] = target: hemagglutinin (HA) of influenza virus H1N1 A/Christchurch/16/10 (influenza A virus); assay: cell-based or functional assay
[33] = target: hemagglutinin (HA) of influenza virus B/Massachusetts/02/12 (Yamagata) (influenza B virus); assay: cell-based or functional assay
[34] = target: hemagglutinin (HA) of influenza virus H1N1 A/Solomon Islands/3/2006 (IVR 145) (influenza A virus); assay: cell-based or functional assay
[35] = target: hemagglutinin (HA) of influenza virus B/Harbin/7/94 (Yamagata) (influenza B virus); assay: cell-based or functional assay
[36] = target: hemagglutinin (HA) of influenza virus H14N5 A/Mallard/Astrakhan/263/1982 (influenza A virus); assay: cell-based or functional assay
[37] = target: hemagglutinin (HA) of influenza virus B/Brisbane/60/08 (Victoria) (influenza B virus); assay: cell-based or functional assay
[38] = target: hemagglutinin (HA) of influenza virus H3N2 A/Brisbane/10/07 (influenza A virus); assay: cell-based or functional assay
[39] = target: hemagglutinin (HA) of influenza virus H3N2 A/Victoria/210/09 (influenza A virus); assay: cell-based or functional assay
[40] = target: hemagglutinin (HA) of influenza virus H7N9 A/Anhui/1/13 (influenza A virus); assay: cell-based or functional assay
[41] = target: hemagglutinin (HA) of influenza virus H2N2 A/Guiyang/1/57 (influenza A virus); assay: cell-based or functional assay
[42] = target: hemagglutinin (HA) of influenza virus H1N1 A/New Caledonia/20/99 (influenza A virus); assay: cell-based or functional assay
[43] = target: hemagglutinin (HA) of influenza virus H1N1 A/Mississippi/03/01 274H (influenza A virus); assay: cell-based or functional assay
[44] = target: hemagglutinin (HA) of influenza virus H5N1 A/PR8 H5N1 HK97 (influenza A virus); assay: cell-based or functional assay
[45] = target: hemagglutinin (HA) of influenza virus H1N1 A/Puerto Rico/8/34-MA (influenza A virus); assay: cell-based or functional assay
[46] = target: hemagglutinin (HA) of influenza virus H9N2 A/HK/466419/09 (influenza A virus); assay: cell-based or functional assay
[47] = target: hemagglutinin (HA) of influenza virus H7N9 A/Shanghai/2/13 (influenza A virus); assay: cell-based or functional assay
[48] = target: HA of H3N2 A/HK/1/68-MA (influenza A virus); assay: cell-based or functional assay
[49] = target: HA of H1N1 A/Puerto Rico/8/34-MA (influenza A virus); assay: cell-based or functional assay

B1: SD1048 (VHH)
VHH: EVQLVESGGGVVQPGGSLRLSCVASGRTSSMYSIGWFRQAPGKEREFVAVIGWYSGRTFYTDSMKGRFTISRDNARNTVYLQMNSLKPEDTAVYYCAAANGPLRLSNQADYWGQGTQVTVSS
Kd [1]: 3 nM
Kd [2]: 3 nM
VNA titer [3]: > 1000 nM
VNA titer [4]: > 1000 nM
VNA titer [5]: > 1000 nM
VNA titer [6]: > 1000 nM
VNA titer [7]: 19.5 nM
VNA titer [8]: > 1000 nM
VNA titer [9]: 20.6 nM

B2: MD2501 (bispecific antibody)
chain: EVQLVESGGGLVQPGGSLRLSCAVSISIFDIYAMDWYRQAPGKQRDLVATSFRDGSTNYADSVKGRFTISRDNAKNTLYLQMNSLKPEDTAVYLCHVSLYRDPLGVAGGMGVYWGKGALVTVSSGGGGSGGGGSEVQLVESGGGLVQPGGSLRLSCAVSISIFDIYAMDWYRQAPGKQRDLVATSFRDGSTNYADSVKGRFTISRDNAKNTLYLQMNSLKPEDTAVYLCHVSLYRDPLGVAGGMGVYWGKGALVTVSSGGGGSGGGGSEVQLVESGGGLVQAGGSLKLSCAASGRTYAMGWFRQAPGKEREFVAHINALGTRTYYSDSVKGRFTISRDNAKNTEYLEMNNLKPEDTAVYYCTAQGQWRAAPVAVAAEYEFWGQGTQVTVSSGGGGSGGGGSEVQLVESGGGLVQPGGSLRLSCAATGFTLENKAIGWFRQTPGSEREGVLCISKSGSWTYYTDSMRGRFTISRDNAENTVYLQMDSLKPEDTAVYYCATTTAGGGLCWDGTTFSRLASSWGQGTQVTVSSGGGGSGGGGSEVQLVESGGGLVQPGGSLKLSCAASGFTFSTSWMYWLRQAPGKGLEWVSVINTDGGTYYADSVKDRFTISRDNAKDTLYLQMSSLKSEDTAVYYCAKDWGGPEPTRGQGTQVTVSS
average neutralization titer [10]: 19 nM
average neutralization titer [11]: 8.8 nM
average neutralization titer [12]: 16 nM
average neutralization titer [13]: 6.5 nM
average neutralization titer [14]: 5.7 nM
average neutralization titer [15]: 16 nM
average neutralization titer [16]: 13.8 nM
average neutralization titer [17]: 12.6 nM
average neutralization titer [18]: 3.9 nM
average neutralization titer [19]: 3 nM
average neutralization titer [20]: 8.3 nM
average neutralization titer [21]: 11.6 nM
average neutralization titer [22]: 14.1 nM
average neutralization titer [23]: 2.9 nM
average neutralization titer [24]: 3 nM
average neutralization titer [25]: 18.1 nM
average neutralization titer [26]: 14 nM
average neutralization titer [27]: 16 nM
average neutralization titer [28]: 14.9 nM
average neutralization titer [29]: 6.5 nM
average neutralization titer [30]: 14.6 nM
average neutralization titer [31]: 21.2 nM
average neutralization titer [32]: 1.3 nM
average neutralization titer [33]: 4 nM
average neutralization titer [34]: 3.9 nM
average neutralization titer [35]: 4.3 nM
average neutralization titer [36]: 15.6 nM
average neutralization titer [37]: 5 nM
average neutralization titer [38]: 9.6 nM
average neutralization titer [39]: 5.8 nM
average neutralization titer [40]: 73.8 nM
average neutralization titer [41]: 19.9 nM
average neutralization titer [42]: 4.8 nM
average neutralization titer [43]: 4.9 nM
average neutralization titer [44]: 4.9 nM
average neutralization titer [45]: 8.5 nM
average neutralization titer [46]: 16 nM
average neutralization titer [47]: 36.5 nM

B3: SD1025 (VHH)
VHH: EVQLVESGGGLVQAGGSLRLSCAASGRTYAMAWFRQAPGKEREFVAHINALGTRTYYSDSVQGRFTISRDNAKNTEYLQMNSLKPEDTAVYYCAAGGQWRAAPVADAAQYDFWGQGTQVTVSS
VNA titer [48]: > 1000 nM
VNA titer [49]: > 1000 nM
VNA titer [3]: > 1000 nM
VNA titer [4]: > 1000 nM
VNA titer [6]: > 1000 nM
VNA titer [7]: > 1000 nM
VNA titer [9]: 52 nM
